Measured values: US20240084003A1 (SIMCERE ZAIMING PHARMACEUTICAL, published 2024)

T1: murine CD22 protein (ACROBiosystems, SI2-M52Ha) (murine, UniProt P35329 22-708)
T1 construct: extracellular domain; also called murine CD22-ECD; murine CD22-ECD-His
T1 sequence (looked up): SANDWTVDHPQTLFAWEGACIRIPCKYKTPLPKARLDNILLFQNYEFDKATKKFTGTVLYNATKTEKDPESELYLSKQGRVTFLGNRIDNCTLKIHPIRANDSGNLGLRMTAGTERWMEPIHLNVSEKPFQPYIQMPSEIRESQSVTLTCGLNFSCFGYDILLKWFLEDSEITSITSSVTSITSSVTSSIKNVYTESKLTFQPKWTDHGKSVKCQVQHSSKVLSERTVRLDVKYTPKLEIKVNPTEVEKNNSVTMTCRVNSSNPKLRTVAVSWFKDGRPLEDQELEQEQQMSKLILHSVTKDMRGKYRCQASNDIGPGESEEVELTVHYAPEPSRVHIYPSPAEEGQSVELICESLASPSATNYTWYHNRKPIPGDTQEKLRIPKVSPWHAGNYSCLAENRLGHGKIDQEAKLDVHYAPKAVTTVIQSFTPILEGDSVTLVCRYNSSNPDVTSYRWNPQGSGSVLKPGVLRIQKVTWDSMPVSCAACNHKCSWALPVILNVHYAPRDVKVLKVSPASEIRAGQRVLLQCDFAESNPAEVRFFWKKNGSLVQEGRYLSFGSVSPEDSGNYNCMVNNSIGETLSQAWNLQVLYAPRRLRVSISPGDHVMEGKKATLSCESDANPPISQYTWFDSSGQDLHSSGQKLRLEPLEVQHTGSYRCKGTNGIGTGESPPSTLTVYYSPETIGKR

T2: monkey CD22 (full length, on HEK293T cells) (monkey)
T2 construct: NCBI XP_014979161.2; also called HEK293T-monkey CD22; HEK293T cells overexpressing monkey CD22
T2 chain: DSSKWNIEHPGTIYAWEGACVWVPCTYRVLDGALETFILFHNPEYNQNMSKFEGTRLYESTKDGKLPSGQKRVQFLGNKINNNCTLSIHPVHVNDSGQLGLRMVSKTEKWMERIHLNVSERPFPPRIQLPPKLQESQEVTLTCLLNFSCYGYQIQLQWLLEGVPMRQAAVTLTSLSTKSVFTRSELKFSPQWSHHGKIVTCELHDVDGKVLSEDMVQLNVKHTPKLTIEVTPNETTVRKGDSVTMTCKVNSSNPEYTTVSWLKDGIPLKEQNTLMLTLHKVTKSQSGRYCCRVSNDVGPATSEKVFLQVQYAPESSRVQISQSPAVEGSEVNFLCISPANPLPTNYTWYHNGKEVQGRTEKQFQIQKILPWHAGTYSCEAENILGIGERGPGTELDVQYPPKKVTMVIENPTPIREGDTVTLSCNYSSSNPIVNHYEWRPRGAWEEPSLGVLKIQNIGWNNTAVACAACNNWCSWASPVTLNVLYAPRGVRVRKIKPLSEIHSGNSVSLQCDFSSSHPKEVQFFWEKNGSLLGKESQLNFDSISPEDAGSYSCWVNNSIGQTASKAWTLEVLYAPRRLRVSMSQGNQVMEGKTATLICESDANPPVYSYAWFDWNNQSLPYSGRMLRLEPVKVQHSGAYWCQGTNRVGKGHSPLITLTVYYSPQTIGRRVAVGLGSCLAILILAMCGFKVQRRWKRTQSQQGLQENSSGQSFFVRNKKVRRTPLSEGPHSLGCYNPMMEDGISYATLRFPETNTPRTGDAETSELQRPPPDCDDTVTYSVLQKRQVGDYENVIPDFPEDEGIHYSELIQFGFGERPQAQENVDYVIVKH

T3: monkey CD22 protein (ACROBiosystems, SI2-R52Ha) (monkey (rhesus monkey in paragraph 148), UniProt H9G1X2 18-686)
T3 construct: extracellular domain; also called monkey CD22-ECD; monkey CD22-ECD-His
T3 sequence: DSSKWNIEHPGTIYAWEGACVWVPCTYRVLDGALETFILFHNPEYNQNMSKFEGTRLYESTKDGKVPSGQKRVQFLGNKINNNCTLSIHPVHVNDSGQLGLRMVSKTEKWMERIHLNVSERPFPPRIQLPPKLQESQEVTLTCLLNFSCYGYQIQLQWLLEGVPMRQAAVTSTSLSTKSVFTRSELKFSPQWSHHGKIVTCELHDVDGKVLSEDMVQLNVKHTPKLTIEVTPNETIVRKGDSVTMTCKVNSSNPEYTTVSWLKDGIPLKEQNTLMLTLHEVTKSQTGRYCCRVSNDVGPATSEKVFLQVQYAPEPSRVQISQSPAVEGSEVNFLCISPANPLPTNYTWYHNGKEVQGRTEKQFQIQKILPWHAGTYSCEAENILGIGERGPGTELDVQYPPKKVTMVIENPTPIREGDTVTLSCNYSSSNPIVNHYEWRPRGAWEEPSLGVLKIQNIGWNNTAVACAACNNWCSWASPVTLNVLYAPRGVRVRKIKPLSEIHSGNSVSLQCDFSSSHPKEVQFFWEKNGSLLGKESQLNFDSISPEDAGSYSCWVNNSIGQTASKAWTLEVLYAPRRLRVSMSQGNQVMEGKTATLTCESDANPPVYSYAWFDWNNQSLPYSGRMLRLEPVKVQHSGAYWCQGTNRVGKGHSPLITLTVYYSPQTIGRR

T4: human CD22-ECD-His protein (human, UniProt P20273 20-687)
T4 construct: Recombinant, from HEK293E cells; also called hCD22-ECD-His; human CD22-His protein; not shown: His tag
T4 sequence: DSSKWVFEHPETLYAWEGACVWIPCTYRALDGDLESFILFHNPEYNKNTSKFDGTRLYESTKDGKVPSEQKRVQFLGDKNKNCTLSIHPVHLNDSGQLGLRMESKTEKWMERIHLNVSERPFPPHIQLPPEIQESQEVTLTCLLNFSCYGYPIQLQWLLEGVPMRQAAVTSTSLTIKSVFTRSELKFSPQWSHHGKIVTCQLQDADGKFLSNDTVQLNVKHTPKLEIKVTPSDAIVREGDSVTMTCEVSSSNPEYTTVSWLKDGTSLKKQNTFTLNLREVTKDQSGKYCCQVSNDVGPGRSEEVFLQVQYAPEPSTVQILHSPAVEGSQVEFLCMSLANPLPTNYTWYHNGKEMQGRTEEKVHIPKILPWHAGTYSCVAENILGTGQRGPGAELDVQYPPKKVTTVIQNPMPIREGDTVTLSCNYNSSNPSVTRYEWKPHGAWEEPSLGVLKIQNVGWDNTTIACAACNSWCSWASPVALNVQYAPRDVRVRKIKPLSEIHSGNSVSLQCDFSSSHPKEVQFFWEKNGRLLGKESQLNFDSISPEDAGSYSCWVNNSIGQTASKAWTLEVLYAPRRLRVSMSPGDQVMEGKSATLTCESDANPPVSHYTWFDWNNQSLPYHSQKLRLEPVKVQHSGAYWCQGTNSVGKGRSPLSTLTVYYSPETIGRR

T5: human CD22 domain1-4-His (human, UniProt P20273 20-425)
T5 construct: also called hCD22 domain1-4-His; not shown: His tag
T5 sequence: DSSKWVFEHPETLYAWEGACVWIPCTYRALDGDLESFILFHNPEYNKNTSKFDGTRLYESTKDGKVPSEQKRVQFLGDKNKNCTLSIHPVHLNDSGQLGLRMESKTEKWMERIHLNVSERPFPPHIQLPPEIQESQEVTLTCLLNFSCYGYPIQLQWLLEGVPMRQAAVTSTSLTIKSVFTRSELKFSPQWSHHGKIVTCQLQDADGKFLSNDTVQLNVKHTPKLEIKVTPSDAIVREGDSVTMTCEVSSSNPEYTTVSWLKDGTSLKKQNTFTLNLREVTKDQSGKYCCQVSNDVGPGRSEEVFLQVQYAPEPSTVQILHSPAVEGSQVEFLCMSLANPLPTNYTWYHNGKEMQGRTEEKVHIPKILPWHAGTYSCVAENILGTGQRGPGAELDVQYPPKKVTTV


Columns and labels:
[1] = biological target: T1, murine CD22 protein (ACROBiosystems, …); assay: ELISA, murine CD22-ECD-His coated
Procedure, shortened: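 Read-out is TMB absorbance after a 30 min room-temperature development stopped with 1.0 N HCl. It reflects chimeric antibody bound to plate-coated CD22 (2 μg/mL), detected with an HRP-labelled secondary antibody. Antibody and secondary incubations each ran 2 h at 37° C.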

[2] = biological target: T2, monkey CD22 (full length, on HEK293T …); assay: FACS, HEK293T-monkey CD22 cells (293T as parent cells)
From the text: The required cells were scale-up cultured in a T-75 cell culture flask to the logarithmic growth phase. For the adherent cell CHO-K1, the medium was aspirated, the cells were washed 2 times with PBS buffer, and then digested with trypsin. After the digestion was terminated, the cells were washed 2 times with PBS buffer. For suspension cell Raji, the medium supernatant was directly centrifuged and discarded, and the cell pellet was washed 2 times with PBS. After counting the cells in the previous step, the cell pellet was resuspended with [PBS+2% (w/w) BSA] blocking solution to 2×10⁶ cells/ml, and added to a 96-well FACS reaction plate at 50 μl/well, and then the chimeric antibody test sample was added at 50 μl/well, and incubated on ice for 2 hours. The mixture was centrifuged and washed 3 times with PBS buffer, Alexa Flour 488-labeled secondary antibody (purchased from Invitrogen, catalog number: A-11013) was added at 50 μl/well, and incubated on ice for 1 hour. The obtained mixture was centrifuged and washed 5 times with PBS, and FACS (FACS Canto™, purchased from BD Company) was used for detection and result analysis. Data analysis was performed by software (CellQuest) to obtain the mean fluorescence density (MFI)of the cells. And then software (GraphPad Prism8) was used for analysis, data fitting, and EC50 value calculation. […] The same method was used to detect the binding of the chimeric antibodies to endogenous CD22-negative cell MoLT4 cells (purchased from ATCC, CRL-1582) and CHO-K1 cells.
HEK293T-monkey CD22 cells were subjected to FACS detection and data analysis according to the method in Example 5.2.

[3] = biological target: T3, monkey CD22 protein (ACROBiosystems, …); assay: ELISA, monkey CD22-ECD-His coated
Experimental: In order to detect the binding activity of CD22 human-murine chimeric antibodies to CD22 protein, the purified human CD22-ECD-His protein obtained in Example 2 was diluted with PBS to a final concentration of 2 μg/mL, and then added to 96-well ELISA plate at 100 μl/well. The plate was sealed with plastic film and incubated overnight at 4° C., the plate was washed 2 times with PBS the next day, and then a blocking solution [PBS+2% (w/w) BSA] was added for blocking at room temperature for 2 hours. […] After incubation at 37° C. for 2 hours, the plate was washed 3 times with PBS. HRP (horseradish peroxidase)-labeled secondary antibody (purchased from Sigma, catalog number: A0170) was added, and incubated at 37° C. for 2 hours, and the plate was washed 5 times with PBS. TMB substrate was added at 50 μl/well, and incubated at room temperature for 30 minutes, then a stop solution (1.0 N HCl) was added at 50 μl/well.
In order to detect the species cross-binding activity of the chimeric antibodies, an ELISA plate was coated with commercial murine CD22 protein (ACROBiosystems, catalog number: SI2-M52Ha) and monkey CD22 protein (ACROBiosystems, catalog number: SI2-R52Ha), respectively, and the ELISA detection was performed according to the method in Example 5.1.

[4] = biological target: T4, human CD22-ECD-His protein; assay: SPR (Biacore), antibody captured on Protein A chip, CD22-ECD-His in solution
Procedure, shortened: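 Antibody captured on Protein A chip, then human CD22-ECD-His injected for 240 s at 30 μL/min, 5 concentrations from 200 nM (1:1 dilution), dissociation up to 600 s, in HBS-EP+ at 25° C. Responses double-referenced; apparent KD and kinetic constants fitted to a Langmuir 1:1 model.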

human CD22 domain1-4-His = biological target: T5, human CD22 domain1-4-His; assay: ELISA, plate coated with human CD22 domain1-4-His

| binding result [1] | binding result [2] | binding result [3] | Kd [4] [nM] | koff [4] [s⁻¹] | kon [4] [M⁻¹ s⁻¹] | binding result (human CD22 domain1-4-His) | Binder |
| --- | --- | --- | --- | --- | --- | --- | --- |
| no binding (tested: 100 nM) | no binding (tested: 10 nM) | no binding (tested: 100 nM) | – | – | – | – | m971-hIgG1 (antibody, V domains shown, Control antibody; variable regions from US 8,591,889 B on human IgG1 constant regions) VH: QVQLQQSGPGLVKPSQTLSLTCAISGDSVSSNSAAWNWIRQSPSRGLEWLGRTYYRSKWYNDYAVSVKSRITINPDTSKNQFSLQLNSVTPEDTAVYYCAREVTGDLEDAFDIWGQGTMVTVSS VL: DIQMTQSPSSLSASVGDRVTITCRASQTIWSYLNWYQQRPGKAPNLLIYAASSLQSGVPSRFSGRGSGTDFTLTISSLQAEDFATYYCQQSYSIPQTFGQGTKLEIKR |
| – | – | – | 18.4 | 0.000155 | 8450 | no binding | F2.180.16 (antibody, human IgG1, lambda, V domains shown, Chimeric IgG1 lambda) VH: EVKLVESGGGLVLPGGSLKISCAASGFTFSDYYMYWIRQTPDKRLEWVAYISNTGYSTFYPDSVKGRFTVSRDNAKNTLYLQMSRLQSEDTAMYYCARHGILYAMDYWGQGTSVTVSS VL: QPVLTQSSSASFSLGASAKLTCTLSSQYSTYTIGWYQQQPLKPPKYVMELKHDGSRHTGDGIPDRFSGSSSGADRYLSISNIQPEDEATYICGVGDTIKEQFMYVFGGGTKVTVLG |
| – | – | – | 0.254 | 7.64e-05 | 301000 | no binding | F1.60.9 (antibody, human IgG1, kappa, V domains shown, Chimeric IgG1 kappa) VH: QVQLKESGPGLVAPSQSLSITCTVSGLSLNNYGVSWVRQPPGKGLEWLGVIWGDGSTNYHSALISRLSISKDNSKSQVFLKLNSLHTDDTATYYCAINWGDYWGQGTTLIVSS VL: DIKMTQSPSSMNASLGERVTITCKASQDINSYLSWFQQKPGKSPKILIYRANRLIDGVPSRFSGSGSGQDYSLTISSLEYEDMGIYYCLQYGVFPLTFGAGTKLELKR |
